Patent publication US20090162336A1
Each block holds one substance with its values, some of them ahead of it.

Experiments:
[1] = target: taxol-stabilized microtubules made from PC tubulin; assay: microtubule pelleting assay
[2] = target: taxol-stabilized microtubules made from PC tubulin; assay: microtubule pelleting assay, gel densitometry, 30 µM polymerized tubulin
[3] = target: taxol-stabilized microtubules made from PC tubulin; assay: microtubule pelleting assay, after 35 kDal kinase, against unphosphorylated htau23
[4] = target: taxol-stabilized microtubules made from PC tubulin; assay: microtubule pelleting assay, after 35 kDal kinase
[5] = target: taxol-stabilized microtubules made from PC tubulin; assay: microtubule pelleting assay, brain extract phosphorylation
[6] = target: taxol-stabilized microtubules made from PC tubulin; assay: microtubule pelleting assay, microtubules from 10 µM tubulin with 20 µM taxol

Substance: S404-A mutant of htau34 after 90 min of phosphorylation with the brain extract kinase activity (from UniProt P10636 1-412)
fold decrease in stoichiometry upon phosphorylation [1]: 2 fold

Substance: bacterially expressed human tau isoform htau34, unphosphorylated (from UniProt P10636 1-412)
Kd [2]: 1 to 2 µM

Substance: htau23 phosphorylated with GSK3 (from UniProt P10636 1-352)
stoichiometry at saturation (tau per tubulin dimer) (per tubulin dimer) [6]: 0.6

Substance: htau23 phosphorylated with the brain extract kinase activity (full, stage 3, 24 hours) (from UniProt P10636 1-352)
Kd [2]: 4.9 µM
stoichiometry n (tau/tubulin dimer) (tau/tubulin dimer) [2]: 0.16
Dn (difference in stoichiometry upon phosphorylation) (tau/tubulin dimer) [5]: 0.33

The remaining lines, values ahead:

reduction in stoichiometry upon phosphorylation (Dn) (tau/tubulin dimer) [3]: 0.05
Kd [4]: 11.6 µM
stoichiometry n (tau/tubulin dimer) (tau/tubulin dimer) [4]: 0.44
Substance: htau23 mutant Ser262-Ala phosphorylated by the 35 kDal kinase (from UniProt P10636 1-352)

Kd [2]: 5.3 µM
stoichiometry n (tau/tubulin dimer) (tau/tubulin dimer) [2]: 0.45
Dn (difference in stoichiometry upon phosphorylation) (tau/tubulin dimer) [5]: 0.04
Substance: htau23 mutant Ser262-Ala phosphorylated with brain extract (from UniProt P10636 1-352)

reduction in stoichiometry upon phosphorylation (Dn) (tau/tubulin dimer) [3]: 0.28
Kd [4]: 8.8 µM
stoichiometry n (tau/tubulin dimer) (tau/tubulin dimer) [4]: 0.21
Substance: htau23 phosphorylated by the 35 kDal kinase (from UniProt P10636 1-352)

fold decrease in stoichiometry upon phosphorylation [1]: 3 fold
Substance: htau34 phosphorylated for 90 min with the brain extract kinase activity (stage 1) (from UniProt P10636 1-412)

fold reduction in binding capacity against unphosphorylated htau34 [1]: 3 fold
Substance: htau34 phosphorylated with the brain extract kinase activity (24 hours) (from UniProt P10636 1-412)
